Laboratory results: PMC3077382, “14-3-3 Proteins Regulate Exonuclease 1–Dependent Processing of Stalled Replication Forks” (PLoS Genetics, 2011)

Target: T1, Exo1-Myc (S. cerevisiae, UniProt P39875 1-702)
T1 construct: Saccharomyces cerevisiae Exonuclease 1 (Exo1); C-terminal Myc tag added to the endogenous EXO1 gene; also called yeast Exo1; source: S. cerevisiae (W303-1A background), endogenous EXO1 gene tagged; in whole cell extract; immunoprecipitated from control or HU-treated cells for Far Western; not shown: Myc, C-terminal, kept
T1 sequence (looked up): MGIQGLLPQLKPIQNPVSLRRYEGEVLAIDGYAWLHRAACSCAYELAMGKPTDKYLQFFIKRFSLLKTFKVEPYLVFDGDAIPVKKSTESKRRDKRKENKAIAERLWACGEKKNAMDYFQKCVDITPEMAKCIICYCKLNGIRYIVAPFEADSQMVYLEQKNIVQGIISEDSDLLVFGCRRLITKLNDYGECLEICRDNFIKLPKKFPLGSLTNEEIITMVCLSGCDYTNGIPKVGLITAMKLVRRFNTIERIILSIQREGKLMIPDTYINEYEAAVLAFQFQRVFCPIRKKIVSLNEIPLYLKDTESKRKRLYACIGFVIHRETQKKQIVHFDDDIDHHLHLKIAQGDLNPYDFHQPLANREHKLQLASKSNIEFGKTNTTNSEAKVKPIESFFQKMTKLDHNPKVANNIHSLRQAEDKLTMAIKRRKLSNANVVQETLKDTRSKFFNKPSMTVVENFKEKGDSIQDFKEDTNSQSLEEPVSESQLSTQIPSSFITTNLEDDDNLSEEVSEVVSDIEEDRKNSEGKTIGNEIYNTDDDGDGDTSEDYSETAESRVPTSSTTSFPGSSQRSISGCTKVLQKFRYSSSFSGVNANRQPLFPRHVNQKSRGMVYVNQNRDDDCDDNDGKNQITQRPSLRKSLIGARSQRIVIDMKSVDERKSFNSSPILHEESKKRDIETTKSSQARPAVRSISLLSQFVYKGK
Assay: far-Western, overlay or dot blot; Exo1-Myc immunoprecipitated from untreated or HU-treated yeast cells, resolved by SDS-PAGE, transferred to PVDF and denatured/renatured; probed with purified GST-Bmh1 (2 µg)
Details: both partners purified

B1: GST-Bmh1 (natural protein, S. cerevisiae, UniProt P29311 1-267, looked up)
chain: MSTSREDSVYLAKLAEQAERYEEMVENMKTVASSGQELSVEERNLLSVAYKNVIGARRASWRIVSSIEQKEESKEKSEHQVELICSYRSKIETELTKISDDILSVLDSHLIPSATTGESKVFYYKMKGDYHRYLAEFSSGDAREKATNASLEAYKTASEIATTELPPTHPIRLGLALNFSVFYYEIQNSPDKACHLAKQAFDDAIAELDTLSEESYKDSTLIMQLLRDNLTLWTSDMSESGQAEDQQQQQQHQQQQPPAAAEGEAPK
notes: Saccharomyces cerevisiae 14-3-3 protein Bmh1; also called purified recombinant GST-Bmh1
Does B1 bind?
Result: binds
